For 1 substance, Km, kcat and kcat/Km results are on record in patent US20030113711A1, “Protein kinase peptide substrate determination using peptide libraries” (priority 2001, published 2003).

Common to all, as to assay: Kinetic evaluation of peptide substrates, varying peptide at fixed ATP (phosphocellulose filter, [γ-33P]ATP)
Format in all cases: biochemical
Holding throughout (conditions): other: ErbB-2; Km for peptide; ATP concentration >10 × Km (200 μM ATP); pH 7.5; 23.0 °C

Data set [1] deals with C[C@H](NC(=O)[C@H](CCCNC(=N)N)NC(=O)CCCCCNC(=O)CCCC[C@@H]1SC[C@@H]2NC(=O)N[C@@H]21)C(=O)N[C@@H](Cc1c[nH]cn1)C(=O)N[C@@H](Cc1c[nH]cn1)C(=O)N[C@@H](CCC(=O)O)C(=O)N[C@@H](CCC(=O)O)C(=O)N[C@@H](Cc1ccc(O)cc1)C(=O)N[C@@H](Cc1c[nH]cn1)C(=O)N[C@@H](Cc1ccccc1)C(=O)N[C@@H](Cc1ccccc1)C(=O)N[C@@H](Cc1ccccc1)C(=O)N[C@@H](C)C(=O)N[C@@H](CCCCN)C(=O)N[C@@H](CCCCN)C(=O)N[C@@H](CCCCN)C(N)=O. The method, then: (§1) Peptide sequences identified as preferred substrates for ErbB-2 using the methods described in Laboratory Example 3 were synthesized. The kcat and Km values for each peptide were determined as follows, using the kinases ErbB-2, ErbB-4, and EGFR.
(§2) Reactions were performed in 96-well polystyrene round bottom plates in a final volume of 45 μL. Reaction mixtures contained 50 mM MOPS, pH 7.5, 10 mM MnCl2, 1 mM dithiothreitol (DTT), 200 μM ATP, 1.0 μCi [γ-^33P] ATP, and varying concentrations of peptide. The reaction was initiated by adding the purified kinase of interest and halted after 10 minutes at 23° C. (room temperature) by adding 45 μL of 0.5% phosphoric acid in water. A 75 μL aliquot of the halted reaction mixture was then transferred to MAPH phosphocellulose filter plates (Millipore, Bedford, Mass.). The plates were filtered three times with 0.2 mL of 0.5 percent phosphoric acid. Scintillation cocktail (50 μL) was added to each well, and the plate was analyzed by counting in a Packard TOPCOUNT® scintillation counter (Packard Instrument Co., Meriden, Conn.). In these assays, the concentration of ATP was greater than ten-fold higher than the Km for ATP, which permitted the kinetic data to be treated as a pseudo-first-order reaction with varying peptide concentration. All experiments were performed in quadruplicate and the average value for each data point was analyzed. The Km and Vmax values were calculated by fitting the data to the Henri-Michaelis-Menten equation by non-linear regression using SIGMAPLOT® (SPSS Science, Chicago, Ill.). kcat values were calculated using the Vmax value, and are based on the protein concentration of the enzyme preparation and an estimate of purity determined from an evaluation of a Coomassie Blue stained SDS-polyacrylamide gel.

Data set [2] has as its system C[C@H](NC(=O)[C@H](CCCNC(=N)N)NC(=O)CCCCCNC(=O)CCCC[C@@H]1SC[C@@H]2NC(=O)N[C@@H]21)C(=O)N[C@@H](Cc1c[nH]cn1)C(=O)N[C@@H](CCC(=O)O)C(=O)N[C@@H](CCC(=O)O)C(=O)N[C@@H](CCC(=O)O)C(=O)N[C@@H](Cc1ccc(O)cc1)C(=O)N[C@@H](Cc1c[nH]cn1)C(=O)N[C@@H](Cc1ccccc1)C(=O)N[C@@H](Cc1ccccc1)C(=O)N[C@@H](Cc1ccccc1)C(=O)N[C@@H](C)C(=O)N[C@@H](CCCCN)C(=O)N[C@@H](CCCCN)C(=O)N[C@@H](CCCCN)C(N)=O. The method, then:
as §1, §2

The subject of data set [3] is CC[C@H](C)[C@H](NC(=O)[C@H](CCC(=O)O)NC(=O)[C@H](Cc1c[nH]cn1)NC(=O)[C@H](Cc1c[nH]cn1)NC(=O)[C@H](C)NC(=O)[C@H](CCCNC(=N)N)NC(=O)CCCCCNC(=O)CCCC[C@@H]1SC[C@@H]2NC(=O)N[C@@H]21)C(=O)N[C@@H](Cc1ccc(O)cc1)C(=O)N[C@@H](Cc1c[nH]cn1)C(=O)N[C@@H](Cc1ccccc1)C(=O)N[C@@H](Cc1ccccc1)C(=O)N[C@@H](Cc1ccccc1)C(=O)N[C@@H](C)C(=O)N[C@@H](CCCCN)C(=O)N[C@@H](CCCCN)C(=O)N[C@@H](CCCCN)C(N)=O. How it is done: as §1, §2

The test system of data set [4] is CC[C@H](C)[C@H](NC(=O)[C@H](CCC(=O)O)NC(=O)[C@H](CCC(=O)O)NC(=O)[C@H](Cc1c[nH]cn1)NC(=O)[C@H](C)NC(=O)[C@H](CCCNC(=N)N)NC(=O)CCCCCNC(=O)CCCC[C@@H]1SC[C@@H]2NC(=O)N[C@@H]21)C(=O)N[C@@H](Cc1ccc(O)cc1)C(=O)N[C@@H](Cc1c[nH]cn1)C(=O)N[C@@H](Cc1ccccc1)C(=O)N[C@@H](Cc1ccccc1)C(=O)N[C@@H](Cc1ccccc1)C(=O)N[C@@H](C)C(=O)N[C@@H](CCCCN)C(=O)N[C@@H](CCCCN)C(=O)N[C@@H](CCCCN)C(N)=O. How it is done:
as §1, §2

Data set [5] concerns CC[C@H](C)[C@H](NC(=O)[C@H](Cc1ccccc1)NC(=O)[C@H](Cc1c[nH]cn1)NC(=O)[C@H](Cc1ccc(O)cc1)NC(=O)[C@H](CCC(=O)O)NC(=O)[C@H](CCC(=O)O)NC(=O)[C@H](CCC(=O)O)NC(=O)[C@H](Cc1c[nH]cn1)NC(=O)[C@H](C)NC(=O)[C@H](CCCNC(=N)N)NC(=O)CCCCCNC(=O)CCCC[C@@H]1SC[C@@H]2NC(=O)N[C@@H]21)C(=O)N[C@@H](Cc1ccccc1)C(=O)N[C@@H](C)C(=O)N[C@@H](CCCCN)C(=O)N[C@@H](CCCCN)C(=O)N[C@@H](CCCCN)C(N)=O. The method, then: as §1, §2

For the substance ErbB-2 (Homo sapiens), the Km in data set [1] is 14.7 µM; in data set [2] it was 6.8 µM; in data set [3] it was 66.6 µM; in data set [4] it was 11.4 µM; in data set [5], 8.6 µM. The kcat in data set [1] worked out at 0.09 s⁻¹; in data set [2] it was 0.0127 s⁻¹; in data set [3] it was 0.173 s⁻¹; in data set [4], 0.0967 s⁻¹; in data set [5], 0.0333 s⁻¹. In addition, the kcat/Km in data set [1] amounted to 6170 M⁻¹ s⁻¹; in data set [2] it was 1830 M⁻¹ s⁻¹; in data set [3] it was 2670 M⁻¹ s⁻¹; in data set [4] it was 8500 M⁻¹ s⁻¹; in data set [5], 3830 M⁻¹ s⁻¹.

As usually defined, the Km is the substrate concentration at which the rate is half of its maximum. In general, kcat refers to the number of substrate molecules converted per active site and unit of time at saturation. One may read the kcat/Km as the second-order rate constant that governs catalysis at low substrate concentration.
